The record followed here is article PMC3657558.

In this experiment the target is CblC, full-length, His-tagged (UniProt Q9Y4U1). Briefly: native gel or EMSA.
Chain of UniProt Q9Y4U1 (Q9Y4U1 whole entry): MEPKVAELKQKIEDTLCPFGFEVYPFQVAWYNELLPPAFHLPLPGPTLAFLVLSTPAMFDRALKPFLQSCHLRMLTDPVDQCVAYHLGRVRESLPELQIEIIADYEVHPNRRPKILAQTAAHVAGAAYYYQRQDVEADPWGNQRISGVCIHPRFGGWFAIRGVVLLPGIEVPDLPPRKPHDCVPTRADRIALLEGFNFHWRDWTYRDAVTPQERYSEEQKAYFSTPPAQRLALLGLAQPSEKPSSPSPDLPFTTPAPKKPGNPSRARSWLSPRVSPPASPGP

As to “full-length CblD, N-terminal 6xHis-tagged (from UniProt Q9H3L0 39-296) (natural protein)”, the stoichiometry N is 1 CblC:CblD.
